Laboratory results from US10502741B2, “Means and methods for detecting activated MALT1” (Helmholtz Zentrum München Deutsches Forschungszentrum für …, priority 2014, dated 2019).

Tests used:
[1] = target: T1, active MALT1 (Homo sapiens, UniProt Q9UDY8); assay: Labeling with diagnostic inhibitor in cell extracts (gel-based, fluorescence scan): active MALT1 band
T1 construct: endogenous in cells; host or cells: Jurkat T cells, primary human PBMCs and T cells, DLBCL cell lines (HBL1, TMD8, OCI-Ly3, OCI-Ly10, U2932, RIVA, BJAB, Su-DHL-4, Su-DHL-6)
T1 sequence (Q9UDY8 1-824): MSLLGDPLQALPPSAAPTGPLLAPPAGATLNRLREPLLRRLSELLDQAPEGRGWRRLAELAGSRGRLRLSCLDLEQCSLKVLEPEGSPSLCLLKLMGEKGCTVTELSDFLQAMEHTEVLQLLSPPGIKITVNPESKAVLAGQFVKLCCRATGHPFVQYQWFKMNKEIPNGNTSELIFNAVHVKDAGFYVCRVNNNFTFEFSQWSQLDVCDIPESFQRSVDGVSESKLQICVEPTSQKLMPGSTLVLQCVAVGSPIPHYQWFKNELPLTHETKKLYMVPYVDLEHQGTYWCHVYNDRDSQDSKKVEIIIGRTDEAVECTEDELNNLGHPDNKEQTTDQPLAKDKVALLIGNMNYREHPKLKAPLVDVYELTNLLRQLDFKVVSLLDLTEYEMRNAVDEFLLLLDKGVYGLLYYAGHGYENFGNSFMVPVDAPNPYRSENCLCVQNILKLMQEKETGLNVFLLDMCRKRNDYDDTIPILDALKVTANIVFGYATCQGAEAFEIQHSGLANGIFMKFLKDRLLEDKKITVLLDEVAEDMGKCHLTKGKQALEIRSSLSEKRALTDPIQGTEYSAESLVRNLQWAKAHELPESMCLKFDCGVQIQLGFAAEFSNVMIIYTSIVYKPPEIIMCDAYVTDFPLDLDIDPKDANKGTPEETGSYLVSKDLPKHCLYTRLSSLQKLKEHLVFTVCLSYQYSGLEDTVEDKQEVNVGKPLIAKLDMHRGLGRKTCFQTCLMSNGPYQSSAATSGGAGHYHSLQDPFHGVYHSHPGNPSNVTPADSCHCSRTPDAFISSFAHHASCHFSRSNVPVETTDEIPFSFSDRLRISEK
Method: (§1) Jurkat T cells were cultured in standard RPMI medium containing 10% FCS, 100 U/ml Penicillin/Streptomycin and 2 mM Glutamin. DNA transfection of 6 μg DNA in 8×10^6 Jurkat T cells was performed by electroporation in a GenePulser Xcell (BioRad) with a 220 Volt pulse. For siRNA experiments, Jurkat T cells were transfected with 100 nM siRNA and Atufect transfection reagent (Silence Therapeutics, Berlin). Jurkat T cells were stimulated either with 200 ng/ml PMA (phorbol 12-myristate 13-acetate) and 300 ng/ml Ionomycin (both Calbiochem) or CD3/CD28 antibody co-ligation (human CD3: 1 μg/ml; human CD28: 4 μg/ml; mouse IgG1: 2 μg/ml; mouse IgG2a: 2 μg/ml; BD Biosciences). DLBCL cell lines (HBL1, TMD8, OCI-Ly3, U2932, RIVA, BJAB, Su-DHL-4 and Su-DHL-6) were cultured in standard RPMI medium containing 20% FCS, 100 U/ml Penicillin/Streptomycin and 2 mM Glutamin. OCI-Ly10 cell line was cultured in IMDM containing 20% human serum, 100 U/ml Penicillin/Streptomycin, 2 U/ml heparine, 50 μM β-mercaptoethanol. Inhibitors 10 μM (z-VRPR-FMK, Mepazine, Thioridazine, CA-074Me) were added to the cells in media for 1 h, prior to stimulation and labeling with diagnostic MALT1 inhibitor.
(§2) Jurkat T cells (1-2×10^7), primary human PBMCs or primary human T cells (0.25 or 1×10^7) were lysed in 150 μl co-IP buffer without protease inhibitors. DLBCL (3×10^7) were lysed in 250 μl buffer. After centrifugation (14000 rpm, 10 min, 4° C.), 100 μl extract (DLBCL: 200 μl) was stained with probe 5 or probe 6 (3 μM end) for 50 min at 29° C., mixed with 4× loading dye and boiled.

[2] = target: T2, MALT1 (Homo sapiens, UniProt Q9UDY8); assay: MALT1 in vitro cleavage assay using fluorescent substrate; assay type: biochemical
T2 construct: GST
T2 sequence (Q9UDY8 1-824): T1 sequence (Q9UDY8 1-824)
Method: (§3) C) Impact of indicated compounds on MALT1, Caspase8 and cathepsin B was tested in in vitro cleavage assays using fluorescent substrates. Results and SD from three independent experiments are shown.
Preferably, MALT1 activity is determined in a MALT1 cleavage assay. […] The assay may be performed in cleavage buffer comprising for example 50 mM MES, 1 M sodium citrate pH 7, 150 mM NaCl, 10% sucrose, 0.1% chaps, 10 mM DTT. Catalytically active MALT1 cleaves the substrate and an increase of AMC fluorescence can be measured.

[3] = target: T3, cathepsin B (Homo sapiens, UniProt P07858); assay: Cathepsin B cleavage assay (zRR-AMC substrate); assay type: biochemical; parameters: purchased BioVision; settings: 0.2 ng cathepsin B, 1 mM zRR-AMC, 2 h at 30° C.
Method: as §3
0.2 ng cathepsin B together with probe 5, z-VRPR-FMK (SEQ ID No. 6), mepazine or CA-074 was incubated with 1 mM zRR-AMC substrate for 2 h at 30° C. Assay was performed in 0.1 M sodium acetate pH 5.5, 10 mM DTT and 0.1 mM EDTA. Again, increase of AMC fluorescence is measured in a Synergy 2 Microplate Reader (Biotek).

[4] = target: T3, cathepsin B; assay: Labeling with diagnostic inhibitor in cell extracts (gel-based, fluorescence scan): about 30 kDa cathepsin B band; parameters: endogenous in cells; host or cells: Jurkat T cells; HBL1 and other DLBCL cell lines
Method: as §1, §2

[5] = target: T1, active MALT1; assay: ELISA-based assay (MALT1 ELASA) on streptavidin-coated plates with MALT1 antibody detection; assay type: cell-based; settings: inhibitor-treated (10 μM) DLBCL cells, probe 7
Method: as §1
Untreated DLBCL (1×10^7), primary T cells (0.25×10^7) or Jurkat T cells (0.2-1×10^7) (stimulated or not) were lysed in 300 μl co-IP buffer without protease inhibitors, centrifuged, incubated with probe 7 (concentration as depicted) for 1 h at RT, then transferred to streptavidin-coated plates (96 well, clear) and incubated o/n at 4° C. After blocking with 2% BSA in PBS-T, detection was performed by incubation with MALT1 primary antibody (1 h, RT) and HRP-coupled secondary antibody (1 h, RT). […] was determined after TMB substrate incubation in a photometer (Bio-Tek).

[6] = HBL1 cells, inhibitors 10 μM each

For “z-VRPR-FMK (Z N-terminal cap, FMK warhead)”, which “effect of inhibitor on probe 6 labeling of active MALT1” value [1, 6] is on record?
Its value is “sensitivity”.

And the “effect of inhibitor pretreatment on probe 5 labeling of active MALT1” value ([1]; Jurkat T cells, 10 μM inhibitor before stimulation, probe 5)?
Its value is “prevents binding of diagnostic MALT1-inhibitor”.

What about the “inhibition of MALT1 protease activity in vitro” value [2] of the same substance?
The value was “inhibit MALT1”.

And the “inhibition of cathepsin B activity in vitro” value [3]?
Its value is “abrogated cathepsin B activity even though slightly less efficient”.

And the “effect of inhibitor on the about 30 kDa cathepsin B signal labeled by probe 6” value [4, 6]?
Its value is “sensitive”.

And the “effect of inhibitor pretreatment on the band below 34 kDa (cathepsin B) labeled by probe 5” value ([4]; Jurkat T cells, 10 μM inhibitor, probe 5)?
The value was “reduced”.

And the “effect of inhibitor on active MALT1 signal in DLBCL cells” value [5]?
Its value is “strongly reduced”.
